{
  "source": "patent US20240398973A1",
  "about": "“ENGINEERED ANTIBODY COMPOUNDS AND CONJUGATES THEREOF” (Eli Lilly and Company, priority 2017, published 2024)",
  "molecules": {"B1": {"name": "Emibetuzumab-G4(PAA)-UC-HC-124C-375C: unconjugated emibetuzumab IgG4(PAA) with HC 124C and 375C; HC SEQ ID NO:4, LC SEQ ID NO:5 (antibody)", "heavy": "QVQLVQSGAEVKKPGASVKVSCKASGYTFTDYYMHWVRQAPGQGLEWMGRVNPNRRGTTYNQKFEGRVTMTTDTSTSTAYMELRSLRSDDTAVYYCARANWLDYWGQGTTVTVSSASTKGPCVFPLAPCSRSTSESTAALGCLVKDYFPEPVTVSWNSGALTSGVHTFPAVLQSSGLYSLSSVVTVPSSSLGTKTYTCNVDHKPSNTKVDKRVESKYGPPCPPCPAPEAAGGPSVFLFPPKPKDTLMISRTPEVTCVVVDVSQEDPEVQFNWYVDGVEVHNAKTKPREEQFNSTYRVVSVLTVLHQDWLNGKEYKCKVSNKGLPSSIEKTISKAKGQPREPQVYTLPPSQEEMTKNQVSLTCLVKGFYPCDIAVEWESNGQPENNYKTTPPVLDSDGSFFLYSRLTVDKSRWQEGNVFSCSVMHEALHNHYTQKSLSLSLG", "light": "DIQMTQSPSSLSASVGDRVTITCSVSSSVSSIYLHWYQQKPGKAPKLLIYSTSNLASGVPSRFSGSGSGTDFTLTISSLQPEDFATYYCQVYSGYPLTFGGGTKVEIKRTVAAPSVFIFPPSDEQLKSGTASVVCLLNNFYPREAKVQWKVDNALQSGNSQESVTEQDSKDSTYSLSSTLTLSKADYEKHKVYACEVTHQGLSSPVTKSFNRGEC", "modifications": "SITE 122 THIOETH - position 122 is cysteine residue modified by thioether bond formation to maleimide-polyethylene glycol (PEG) linker; SITE 370 THIOETH - position 370 is cysteine residue modified by thioether bond formation to maleimide-polyethylene glycol (PEG) linker"}, "B2": {"name": "AME133-G1(IQ)-UC-HC-124C-378C: unconjugated AME133 (anti-CD20) IgG1(IQ) with HC 124C and 378C; HC SEQ ID NO:8, LC SEQ ID NO:9 (antibody)", "heavy": "EVQLVQSGAEVKKPGESLKISCKGSGRTFTSYNMHWVRQMPGKGLEWMGAIYPLTGDTSYNQKSKLQVTISADKSISTAYLQWSSLKASDTAMYYCARSTYVGGDWQFDVWGKGTTVTVSSASTKGPCVFPLAPSSKSTSGGTAALGCLVKDYFPEPVTVSWNSGALTSGVHTFPAVLQSSGLYSLSSVVTVPSSSLGTQTYICNVNHKPSNTKVDKKVEPKSCDKTHTCPPCPAPELLGGPSVFLFPPKIKDTLMISRTPEVTCVVVDVSHEDPEVKFNWYVDGVEVHNAKTKPREEQYNSTYRVVSVLTVLHQDWLNGKEYKCKVSNKALPAPIEKTISKQKGQPREPQVYTLPPSRDELTKNQVSLTCLVKGFYPSDICVEWESNGQPENNYKTTPPVLDSDGSFFLYSKLTVDKSRWQQGNVFSCSVMHEALHNHYTQKSLSLSPG", "light": "EIVLTQSPGTLSLSPGERATLSCRASSSVPYIHWYQQKPGQAPRLLIYATSALASGIPDRFSGSGSGTDFTLTISRLEPEDFAVYYCQQWLSNPPTFGQGTKLEIKRTVAAPSVFIFPPSDEQLKSGTASVVCLLNNFYPREAKVQWKVDNALQSGNSQESVTEQDSKDSTYSLSSTLTLSKADYEKHKVYACEVTHQGLSSPVTKSFNRGEC", "modifications": "SITE 128 THIOETH - position 128 is cysteine residue modified by thioether bond formation to maleimide-polyethylene glycol (PEG) linker; SITE 382 THIOETH - position 382 is cysteine residue modified by thioether bond formation to maleimide-polyethylene glycol (PEG) linker"}},
  "key": {"[1]": {"tested_on": "A549 human lung carcinoma cells", "assay": "PMN-mediated killing of A549 tumor cells (xCelligence)", "assay_type": "cell-based", "settings": "2 hours, mean ± SD, n=4", "procedure": "(§1) Antibody-targeted killing of tumor cells by PMNs is measured using the xCelligence Real Time Cell Analysis system (ACEA Biosciences). This system monitors cell viability in real time by recording electrical impedance between sensors on the growth surface of culture plates. It reports a normalized cell index (NCI) that is normalized to control cells in parallel wells and allows one to control for relative culture viability. NCIs are measured continuously at 15 minute intervals for 24 hours following incubation of tumor cultures with targeted antibodies and addition of human primary PMNs at a 10:1 PMN to tumor cell ratio. Prior to seeding with tumor cells, xCelligence 96-well E-Plates are calibrated for background signal. Each well receives 50 μl of culture medium (RPMI+10% FBS+antibiotics) and the E-plate is equilibrated to 37° C. in a humidified incubator containing the xCelligence plate reader.\n(§2) After equilibration, E-Plate well variations in background are measured. Cultured tumor cell lines are dissociated, counted and diluted to a final density of 1×10^5 cells/ml in culture medium and 100 μl of diluted tumor cells were plated into E-Plate wells. The E-Plate is returned to the xCelligence reader and cell indices are measured in 15 minute intervals overnight to establish baseline.\n(§3) The next day, PMNs are isolated from fresh human blood samples and brought to a final density of 2×10^6 cells/ml in culture medium. Following overnight recording, the E-Plate is removed from the xCelligence reader and 22 μl of 10× antibody solution or buffer is added to designated wells. After 15 minutes, 50 μl of diluted PMNs (1×10^5 total cells) or buffer was added to designated wells. Immediately after PMN addition, the E-Plate is returned to the xCelligence reader and cell indices were measured for up to 72 hours. After completion of the experiment, cell indices are normalized (NCI) to the time point immediately preceding the addition of antibodies.\n(§4) Percent NCI is defined as ((NCI of sample)/(NCI of Tumor Cells Alone)×100). For non-adherent tumor cells (Daudi cells), the xCelligence Immunotherapy Kit-B Cell Killing Assay (ACEA #8100004) is used to tether the tumor cells to E-Plate wells according to manufacturer protocols. Following tethering and background acquisition, the protocols are performed as indicated above.\nAdherent MET(+) A549 human lung carcinoma cells are plated for approximately 24 hours, then incubated with Emibetuzumab-G4-fMLFK-HC-124C-375C or emibetuzumab-G4-UC-HC-124C-375C and exposed to primary human PMNs at 10:1 effector to target cell ratio.\nPercent NCI values represent relative viability of A549 cells following 2 hours of exposure to the stated conditions. Values are given as mean percentage normalized to “+PMN” control±SD; n=4 for all conditions. Statistical significance was determined by one-way ANOVA followed by post-hoc Dunnett's multiple comparisons test vs “+PMN”. NCI, normalized cell index; PMN, primary human polymorphonuclear neutrophils; ns, not significant."}, "[2]": {"tested_on": "human primary PMNs", "assay": "PMN reactive oxygen species (ROS) production, luminol-amplified chemiluminescence", "assay_type": "cell-based", "settings": "for PMN ROS production: relative to 1000 nM fMLF, AUC 5 minutes (Tables 9, 11)", "protocol": "Production of ROS by human primary PMNs is measured using luminol-amplified chemiluminescence. Following isolation, PMNs are suspended at 1×10^6 cells/ml in HBSS containing calcium and magnesium (Gibco #14025-092) supplemented with 0.25% human serum albumin (Gemini Bio producst #800-124) and 50 uM Luminol (SigmaAldrich #123072-2.5G). 100 μl of cell suspension (1×10^5 total cells) is then distributed into each well of a 96-well plate suitable for fluorescence measurement (Greiner #655098) and temperature equilibrated to 37° C. for 5 minutes. Following equilibration, 10× solution of antibody conjugate is applied to the wells, achieving a 1× final concentration.\nImmediately after the addition of antibody conjugate, chemiluminescence signal is recorded in a luminometer maintained at 37° C. with 0.01 seconds dwell time per well, 20 seconds total time between sequential plate readings and 45 minutes total run time (PerkinElmer EnVision Multilabel Plate Reader)."}, "[3]": {"tested_on": "Daudi B lymphoblast cells", "assay": "PMN-mediated killing of DAUDI tumor cells (xCelligence)", "assay_type": "cell-based, human", "settings": "6 hours, mean ± SD, n=4, normalized to Buffer control", "procedure": "as §1, §2, §3, §4\nNon-adherent, CD20+ Daudi B lymphoblast cells are immobilized with xCelligence Immunotherapy Kit (ACEA #8100004) to tether the tumor cells to E-Plate wells according to manufacturer protocols, and are exposed to conditions shown below in Table 16. Percent NCI values represent relative viability of DAUDI cells following 6 hours of exposure to the stated conditions. Values are given as mean percentage normalized to “Buffer control” ±SD; n=4 for all conditions. Statistical significance was determined by one-way ANOVA followed by post-hoc Dunnett's multiple comparisons test vs “+PMN”."}},
  "note": "“And” between values parts separate entries of the source, which are not always exact repeats. Equal values may be shown once.",
  "data": [
    {"molecule": "B1", "values": [
      {"measurement": "Percent NCI", "setting": "[1]; A549, 3 nM + PMN", "result": "102.3 ± 1.7", "unit": "%"},
      {"measurement": "Percent NCI", "setting": "[1]; A549, 3 nM without PMN", "result": "101.3 ± 0.7", "unit": "%"},
      {"measurement": "Percent NCI", "setting": "[1]; A549, 10 nM + PMN", "result": "102.5 ± 1.9", "unit": "%"},
      {"measurement": "Percent NCI", "setting": "[1]; A549, 10 nM + PMN, listed as emibetuzumab-G4-UC-HC-124C-375C", "result": "102.5±1.9", "unit": "%"},
      {"measurement": "Percent NCI", "setting": "[1]; A549, 10 nM without PMN", "result": "100.8 ± 1", "unit": "%"},
      {"measurement": "Percent NCI", "setting": "[1]; A549, 30 nM + PMN", "result": "102.7 ± 1.5", "unit": "%"},
      {"measurement": "Percent NCI", "setting": "[1]; A549, 30 nM without PMN", "result": "100.1 ± 0.9", "unit": "%"},
      {"measurement": "Percent NCI", "setting": "[1]; A549, 100 nM + PMN", "result": "102.9 ± 1.5", "unit": "%"},
      {"measurement": "Percent NCI", "setting": "[1]; A549, 100 nM without PMN", "result": "100.8 ± 1.4", "unit": "%"},
      {"measurement": "Percent NCI", "setting": "[1]; A549, 300 nM + PMN", "result": "102.3 ± 1.8", "unit": "%"},
      {"measurement": "Percent NCI", "setting": "[1]; A549, 300 nM without PMN", "result": "102.8 ± 4.9", "unit": "%"}
    ]},
    {"molecule": "B2", "values": [
      {"measurement": "PMN ROS production", "setting": "[2]; 1 nM", "result": 10.3, "unit": "percentage"},
      {"measurement": "PMN ROS production", "setting": "[2]; 3 nM", "result": 10.6, "unit": "percentage"},
      {"measurement": "PMN ROS production", "setting": "[2]; 10 nM", "result": 10.6, "unit": "percentage"},
      {"measurement": "PMN ROS production", "setting": "[2]; 30 nM", "result": 10.5, "unit": "percentage"},
      {"measurement": "PMN ROS production", "setting": "[2]; 100 nM", "result": 10.3, "unit": "percentage"},
      {"measurement": "PMN ROS production, Exposure: Buffer", "setting": "[2]; 300 nM, Buffer, relative to fMLF, AUC 5 minutes (Table 12a)", "result": 25.3, "unit": "percentage"},
      {"measurement": "PMN ROS production, Exposure: Cyclosporin H", "setting": "[2]; 300 nM, PMNs pre-incubated with 1 uM Cyclosporin H for 30 minutes, relative to fMLF (Table 12a)", "result": 19.7, "unit": "percentage"},
      {"measurement": "PMN ROS production", "setting": "[2]; 300 nM", "result": 11.4, "unit": "percentage"},
      {"measurement": "PMN ROS production", "setting": "[2]; 1000 nM", "result": 13.9, "unit": "percentage"},
      {"measurement": "Percent NCI", "setting": "[3]; 10 nM + PMN", "result": "58.7 ± 13.2", "unit": "%"},
      {"measurement": "Percent NCI", "setting": "[3]; 10 nM without PMN", "result": "97.7 ± 1.4", "unit": "%"},
      {"measurement": "Percent NCI", "setting": "[3]; 30 nM + PMN", "result": "93.4 ± 22.4", "unit": "%"},
      {"measurement": "Percent NCI", "setting": "[3]; 30 nM without PMN, listed as AME133-G1(IQ)-UC-124C-378C", "result": "97.3±1.2% and 97.3 ± 0.6%"},
      {"measurement": "Percent NCI", "setting": "[3]; 100 nM + PMN", "result": "114 ± 6.9", "unit": "%"},
      {"measurement": "Percent NCI", "setting": "[3]; 100 nM without PMN", "result": "90.9 ± 0.6", "unit": "%"},
      {"measurement": "Percent NCI", "setting": "[3]; 300 nM + PMN", "result": "113.2 ± 7.2", "unit": "%"},
      {"measurement": "Percent NCI", "setting": "[3]; 300 nM without PMN", "result": "87.7 ± 1.5", "unit": "%"}
    ]}
  ]
}
